Laboratory results reported in the DeepSol protein solubility set.

Experiment: soluble on expression in E. coli; label from the status in PepcDB or PDB records

| Sequence | soluble on expression in E. coli |
| --- | --- |
| MGSDKIHHHHHHMSPDVDIKALRCFLALAQELSFGRAAERMNLTQPSLSAQIRKLEDQVGHRLFERTTRAVHLSPTGKALIEQARTFVSQADAFAAHLSAWRERPDRRMVLGAPIYTFELPEHGALLSAIARELPDMSLRVDNGFANSLVEGLIKGSVDMAMVVAAAVPHDRYLADMAGEGAGELEMPDGLQRITLSDEQIGLAIPEEHPLASYDIVPPEALSGSVIAMLAPLHGRSLYRPISVWLSAAGATGFLPPEAHAFALERYCREYRIPAISIAQFRPRETGNVVYRPAGGLNVRTELAVLRSTRKQRSSIEERLWDLASSLGR | not soluble |
| MQNAVKLDEIDHKIMNLLYENARISVSEIGRIISMTQPAVKERINKLEDQGVIAAYRTKFEPSKINKNIQAFIMFKTSQCSDFIQFCNAAPEVTDLYRISGEFNYMMKVMSDSMDSLAAFLDSLMQFGLSSPLIVLKSEFEEKLSF | soluble |
| GPHMGGSMFSWLKKGGARGQRPEAIRTVTSSLKELYRTKLLPLEEHYRFGSFHSPALEDADFDGKPMVLVAGQYSTGKTSFIQYLLEQEVPGSRVGPEPTTDCFVAVMHGETEGTVPGNALVVDPEKPFRKLNPFGNTFLNRFMCAQLPNQVLESISIIDTPGILSGAKQRVSRGYDFPAVLRWFAERVDLIILLFDAHKLEISDEFSEAIGALRGHEDKIRVVLNKADMVETQQLMRVYGALMWALGKVVGTPEVLRVYIGSFWSQPLLVPDNRRLFELEEQDLFRDIQGLPRHAALRKLNDLVKRARLVRVHAYIISYLKKEMPTVFGKENKKKQLILKLPVIFAKIQLEHHISPGDFPDCQKMQELLMAHDFTKFHSLKPKLLEALDDMLAQDIAKLMPLLRQEELESVEAGVAGGAFEGTRMGPFVERGPDEAIEDGEEGSEDDAEWVVTKDKSKYDEIFYNLAPADGKLSGSKAKTWMVGTKLPNSVLGRIWKLSDVDRDGMLDDEEFALASHLIEAKLEGHGLPTNLPRRLVPPSKRRQKGSAE | soluble |
| MSDVATLESFRLADSFLPVGTYTVSYGLEQFIQDDRVEDATDLEGLLSTYLRRQIGPAELVALRAAHAAATDGDIEAICHADQRLSAVTLAAEFRESAQQSGDRLLSLQTELRDEALLNRYAERVDADDAPGNYAVVLGVATGLADVAVREACLLCCHGFVTGLLGAAQRLLSLGHTDAQRILNDLQPVMTAAVDDSADRGIDEMTPFAPLVDVLAAEHERAERRLFASLEHHHHHH | not soluble |
| MGSDKIHHHHHHMKAVYPGSFDPITLGHVDIIKRALSIFDELVVLVTENPRKKCMFTLEERKKLIEEVLSDLDGVKVDVHHGLLVDYLKKHGIKVLVRGLRAVTDYEYELQMALANKKLYSDLETVFLIASEKFSFISSSLVKEVALYGGDVTEWVPPEVARALNEKLKEGKR | soluble |
| PFEPKIVAFVCTYCTYAGADLAGTSRLNYAPNVRIVRLPCTGRISPMFILKALQKGADSVLVSGCHPGDCHFTAGNYHARRRWTVFRALLSFTGIPEERIRFSWISAAEGAKFAELINEITDDTRKLG | not soluble |
| MSDIEVFELDDNFDPLEDIGLVDEEDIEHHDYQMPIPDAELSVVPEPVQLTPREKMDKLIAGIPGHKQRIVEVIRICEEPLTASEIEERLNDTYPQSASVYDAARIADLLVEAEGLVRLNAEEGADEETVAAPKTDTEHPEADVDAVVTPHAGVDETGDYLEVQPPEPSRYVATDEGLAFVAAMTDMAPVMELLEKEPRYLPIYERILRMTSNEEGCGKAELNKAIDSDELCQEPRRYTEYFLFRLQEVAAVRWNRVWYATDLGTSALNSNIFTK | not soluble |
| MNGPEVLRFAANLYRVPVEGGYFLVDAGLPWEARRLLSLLQEPPRLLFLTHHHLDHAGGARALWERFRVPVLAHPQEWAYLTKRKPRPPLPLPLLGKGARQLGADDPGGGPRPRGGRGWRSSASGWSTSRGTPLGQVGLFREGVLLAGNALRGRGLPPRFINEDHALARRTVRKILELGVKRVYLGHGGPLSGEEVAAIARRLGV | soluble |
| MKGLENAIRNLNSLDRQMVPRASIWAVNRVAQKAVSVATRKVARETVAGDNQVRGLPLKLVRQRVRLFKAGTDGKRSARIRINRGNLPAIKLGAAQVRMSKRRGKLLYRGSVLKIGPYLFRDAFIQQLANGRWHVMRRVNGKNRYPIDVVKIPLSGPLTQAFESATQSLIDEEIPKQLGYALKQQLRLYLSR | not soluble |
| QVQLQQPGTELVKPGASVKLSCKASGYTFTGFWIHWVKQRPGQGLEWIGHINPGNGGTNYNEKFKRMATLTVDKSSSTAYMQLSSLTSEDSAVYYCARSYSNYVRAMDYWGQGTSVTVSSAKTTAPSVYPLVPVCGGTTGSSVTLGCLVKGYFPEPVTLTWNSGSLSSGVHTFPALLQSGLYTLSSSVTVTSNTWPSQTITCNVAHPASSTKVDKKIEP | soluble |
| MGSDKIHHHHHHPWRLLTPDQRYQKRQSQLKSTMSDFFTWCESVHALPQSKFGRAIDYALSQREAMENVLLDGRLELSNNRVERAVKELVIGRKNWLFSTSFKGARSSGIILSVMRSAEANGLDCRKYLEYLFTELPNLSVPGDSKALQDYLPWSSQVRAICAR | not soluble |
| NTLKAGQTQSFNDWFPDDNFASEVAAAFEMQATDTISEEQLATLTSLDCHNSSITDMTGIEKLTGLTKLICTSNNITTLDLSQNTNLTYLACDSNKLTNLDVTPLTKLTYLNCDTNKLTKLDVSQNPLLTYLNCARNTLTEIDVSHNTQLTELDCHLNKKITKLDVTPQTQLTTLDCSFNKITELDVSQNKLLNRLNCDTNNITKLDLNQNIQLTFLDCSSNKLTEIDVTPLTQLTYFDCSVNPLTELDVSTLSKLTTLHCIQTDLLEIDLTHNTQLIYFQAEGCRKIKELDVTHNTQLYLLDCQAAGITELDLSQNPKLVYLYLNNTELTELDVSHNTKLKSLSCVNAHIQDFSSVGKIPALNNNFEAEGQTITMPKETLTNNSLTIAVSPDLLDQFGNPMNIEPGDGGVYDQATNTITWENLSTDNPAVTYTFTSENGAIVGTVTTPFEAPQPIK | soluble |
| MRMIVGHGIDIEELASIESAVTRHEGFAKRVLTALEMERFTSLKGRRQIEYLAGRWSAKEAFSKAMGTGISKLGFQDLEVLNNERGAPYFSQAPFSGKIWLSISHTDQFVTASVILEENHES | soluble |
| MKIVEGVSLHLIKNQQFKTNHLTFRFSGDFNNKTVARRSLVAQMLVTANAKYPKVQEFREKLASLYGASLSTKISTKGLVHIVDIDIVFVKNTFTLEQENIVEQIITFLEDMLFSPLISLEQYQTSIFDTEKKN | not soluble |
| MAHHHHHHMHRFRVCALGAAFCVARRWRSGGGPGDRRVRTDWYRCYPSLMEEKDRDMYHCYYPYLFDHGDKMSLYPKIPDNPREWQVEQLQTTYDAIREDKYDAFVRLRAKFPELYQDTYAWDNPPPFGEFNMFYSVRFGMIGVKAFTCKDYDDLGNQFDCTAFWFPDNQIVKHSTRNGDVGTDKVYVGAMNVPVEFHKPHVAAFYKAAGVPVKHVSAGFPVTPDAYAPVGTKLDVRHFKPGQEVTITFQNTDYGYQGVMFRHGFDGGYVWLGDSKWQRRPGCMGAEGQKRIYPGHRMAGQTGASAETYDGVPVWRIDYKNSLIYLPTLIDADVGTYVKFRDTINTKGYTLWNEHRGTPPFPTFIPSEEEDLSKLATDEGQLTSPPLYMYFRDEFAAAQLVTQADVEDAKSAKPATAAPKKKVYDLKKYTEARKKYRKNLQKARKYKLMGVRTRAHEKQQEARRAKILKYKRVKT | not soluble |
| MSLKFMYSALLGNPVEHSISDELFEYLNHNIGVLDEYKHKKILVDSVCLEDKIKHLINDPKCIGLNITLPYKREVMRYIDNLDRVAEITGSVNNIYKSGNIITGTNTDWKGIYNTLVFFNISHITKCCVLGTGGTARAAIFALQKLQISPTVVYREPISENTRSLIKSFPDLKYITYKELADQQILNDMEIIINTTPVGMINYEESLPINFDHLDNVNYKDKYFMDVVFNPLHTKLHEYFGKKGAKIIDGLWVLIFQGIEAFSLWSDKINDGKYFFSKDDVVLIHTFLEGKIKGKEGHHHHHH | soluble |
| MIEWQLAELIPHAGDMILIDQVLDFDEEQINTRLTVRADGLFNQPDGSLPAWLGIELMAQSVAAYAGCQARSKGEAVKLGFLLGSRKFDCNVARFPAGSELHIHAIRSLQDDSGMGVFECTLTGPDITALARLNVYCPPNTADYLAEGAPALEHHHHHH | not soluble |
| MKINNLVDLHCHILPAIDDGSPSLEASLELARQAVADGIRYILATPHHMDRHYLNHAGDVVAAVEAFQAELDVNDIPLTIFPGQEVHLNGQLMEKVDDLLSIDTGRHYLLLELPHEMVPSYLDEMIFQLSCEGITPVIAHPERNAQIIAEPQRLYKLAEDGVLAQVTATSLVGTFGEQVQRTAKEFVKCGLVQVVASDAHTLKNRGFAMTKAYQVLNEMDSKYPERFATNARDLLNGEQIEMGQIEIPRKQRKHWLF | not soluble |
| SAAPPGEYFSVGSQVSCRTCQEQRLQGEVVAFDYQSKMLALKCPSSSGKPNHADILLINLQYVSEVEIINDRTETPRPLASLNVSKLASKARTEKEEKLSQAYAISAGVSLEGQQLFQTIHKTIKDCKWQEKNIVVMEEVVITPPYQVENCKGKEGSALSHVRKIVEKHFRDVESQKILQRSQAQQPQKEAALSS | soluble |
| MDEEKDLAQRKKEAAERAKQLARERLAARQADEQARSAAETGSLKTPPNSNGSQTETTKGEATEPASANDLALAKKRAAEEARAKAAQLRRQGEAAASGAATGDDLEAAKRKAAEEARAKAAQLRRQREAAAPGAATGDDLEAAKRKAAEEARARAAELRRQREAAESGAEDDLELAKKKAVAAAKARAAALAKQKAAEASGDDDELAKQKAAAAAKAKAAAAAKARAAALAKQQGGAGDEGAKQKAAAAARAKAEETDGGTGRSAAPSPNDPLLEKYVRIIHEHLGSDVLEDAYINRLAKDVPTLVVKKEAYYKVAELLKGHEQLRFDYLSELHGTDFQTHMEVYVHLYSYPNRHPVALKVKIERDNPEVDSLVPLWPGANWPECEAYDLLGIRFRGHPNLIRIFLGEQWVGHPLRKDYEPYDAEV | not soluble |
| MNNSAFTFQTLHPDTIMDALFKQGIRVDSGLTPLNSYENRVYQFQDEERRRFVVKFYRPERWTADQILEEHQFALQLVNDEVPVAAPVAFNGQTLLNHQGFYFAVFPSVGGRQFEADNIDQMEAVGRYLGRMHQTGRKQLFIHRPTIGLNEYLIEPRKLFEDATLIPSGLKAAFLKATDELIAAVTAHWREDFTVLRLHGDCHAGNILWRDGPMFVDLDDARNGPAIQDLWMLLNGDKAQQRMQLETIIEAYEEFSEFDTAEIGLIEPLRAMRLVYYLAWLMRHWADPAFPKNFPWLTGEDYWLRQTATFIEQAKVLQEPPLQLTPMY | not soluble |
| MGHHHHHHSHMFGGDTLYELRCSLQLAETEREGGFSPHISPFTAVNDLGHLLGRAGFNTLTVDTDEIQVNYPGMFELMEDLQGMGESNCAWNRKALLHRDTMLAAAAVYREMYRNEDGSVPATYQIYYMIGWKYHESQARPAERGSATVSFGELGKINNLMPPGKKSQ | not soluble |
| MSDKKDFENNYEKTEDAWPIGVELVEHEISTGIWVTTQWQLTGFALNPTEETPDVCLLQLHKDERTDYRFNLSSQQPKLFLVMDNVESGEKPAIQLLTASQSVAAQYMDGDNLVLSNDMPLAVQAWMEAFIGRHGELLEVRRKKRKGAGRANGN | not soluble |
